Changes are numbered by the printed parent chain.
B1: antibody 372 (antibody, V domains shown)
VH: QVQLVESGGGVVQPGRSLRLSCAASGFTFSSYAMHWVRQAPGKGLEWVAVISYDGSNKYYADSVKGRFTISRDNSKNTLYLQMNSLRAEDTAVYYCARDLGTSALLWFGELFLNYGMDVWGQGTTVTVSS
VL: QSALTQPRSVSGSPGQSVTISCTGTSSDVGGYNYVSWYQQHPGKAPKLMIYDVSKRPSGVPDRFSGSKSGNTASLTISGLQAEDEADYYCCSYAGSPILVFGGGTKLTVL
B2: antibody 366 (antibody, V domains shown)
VH: QVQLVESGGGVVQPGRSLRLSCAASGFTFSSYAMHWVRQAPGKGLEWVAVISYDGSNKYYADSVKGRFTISRDNSKNTLYLQMNSLRAEDTAVYYCARGLVGYNWFDPWGQGTLVTVSS
VL: DIQMTQSPSSVSASVGDRVTITCRASQGISSWLAWYQQKPGKAPKLLIYAASSLQSGVPSRFSGSGSGTDFTLTISSLQPEDFATYYCQQANSFTFGPGTKVDIK
B3: antibody 365 (antibody, V domains shown)
VH: QVQLVESGGGVVQPGRSLRLSCAASGFNLSSYAMHWVRQASGKGLEWVSLISYDGSIKYYTDSVKGRFTVSGDNSKNTLFLQMNSLRPDDSALYYCVRGGVSGPNSFDMWGQGTTVTVSS
VL: DVVMTQSPLSLPVTLGQPASISCRSSQSLVYSDGNTYVNWFQQRPGQSPRRLIYKVSIRASGVPDRFSGSGSGTDFALKISRVEAEDVGVYYCMQGTHWPVTFGQGTKVEIK
B4: antibody 380 (antibody, V domains shown)
VH: QVQLVESGGGVVQPGRSLRLSCAASGFTLKNYGMHWVRQAPGKGLEWVIVLSFDGSDEYKADSVRGRFTVSRDNSKNTLFLQMNSLRPDDTAVYYCAREQPTMIEGGRGPFDIWGQGTMVTVSS
VL: EVVMTQSPATLSVSPGDRATLSCRASQGVNSNLAWYQQKPGQAPRLLIYAASTRATGIPARFSASGSGTHFTLTISSLQSEDFAVYYCLQYNNWPPWTFGQGTKLEIK
B5: antibody 378 (antibody, V domains shown)
VH: QVQLVQSGAEVKKPGASVKVSCKASGYTFTSYYMHWVRQAPGQGLEWMGIINPSGGSTSYAQKFQGRVTMTRDTSTSTVYMELSSLRSEDTAVYYCARDSGGMDDFWSGYYSPGGDYWGQGTLVTVSS
VL: QSALTQPASVSGSPGQSITISCTGTSSDVGSYNLVSWYQQHPGKAPKLMIYEGSKRPSGVSNRFSGSKSGNTASLTISGLQAEDEADYYCCSYAGSSTWVFGGGTKLTVL
B6: antibody 367 (antibody, V domains shown)
VH: QVQLVQSGAEVKKPGASVKVSCKASGYTFTGYYIHWVRQAPGQGLEWMGWINPNSGGTIYAQKFQGRVTMTRDTSISTAYMELSRLTSDDTAVYSCAREPYYDILTGYYAPRRYFDYWGQGTLVTVSS
VL: QSALTQPASVSGSPGQSITISCTGTSSDVGSYNYVSWYLQHPGKAPKLMIYDVSNRPSGVSNRFSGSKSGNTASLTISGLQAEDEADFYCSSYTSRSTYVFGTGTKVTVL
B7: antibody 439 (antibody, V domains shown)
VH: QVQLVESGGGVVQPGRSLRLSCAASGFTFSSYAMHWVRQAPGKGLEWVAVISYDGSNKYYADSVKGRFTISRDNSKNTLYLQMNSLRAEDTAVYYCARPPRGGSYYPFDPWGQGTLVTVSS
VL: not shown
B8: antibody 446 (antibody, V domains shown)
VH: B7 VH with P100N, R101S, G103S, S104Y, Y105F, Y106G, P107Y, D109Q, P110H
VL: QSVLTQPPSVSGAPGQRVTISCTGSSSNIGAGYDVHWYQQLPGTAPKLLIYGNSNRPSGVPDRFSGSKSGTSASLAITGLQAEDEADYYCQSYDSSLSGFYVFGTGTKVTVL
B9: antibody 480 (antibody, V domains shown)
VH: B7 VH with S56N, A97V, P99T, P100N, R101S, G103S, S104Y, Y106A, P107A, P110Y
VL: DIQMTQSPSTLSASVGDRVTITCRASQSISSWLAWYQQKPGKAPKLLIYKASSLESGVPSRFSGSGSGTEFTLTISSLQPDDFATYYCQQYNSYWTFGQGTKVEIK
B10: antibody 476 (antibody, V domains shown)
VH: QVQLVQSGSELKKPGASVKVSCKASGYTFTSYAMNWVRQAPGQGLEWMGWINTNTGNPTYAQGFTGRFVFSLDTSVSTAYLQISSLKAEDTGVYYCARDHELPNSSSWFGHFEYWGQGTLVTVSS
VL: SYELTQPPSVSVSPGQTARITCSGDALPKQYAYWYQQKAGQAPVLVIYKDSERRSGIPERFSGSSSGTTVTLTISGVQAEDEADYYCQSADSSGTSVVFGGGTKLTVL
B11: antibody 482 (antibody, V domains shown)
VH: EVQLVESGGGLVQPGGSLRLSCAASGFTFSSYWMTWVRQAPGKGLEWVANIKQDGSEKYYVDSVKGRFTISRDNAKNSLYLQMNSLRAEDTAVYYCARGVGSWYLGFDYWGQGTLVTVSS
VL: NFMLTQPHSVSESPGKTVTISCTGSSGSIASNYVQWYQQRPGSAPTTVIYEDNQRPSGVPDRFSGSIDSSSNSASLTISGLKTEDEADYYCQSYDGSSYVFGTGTKVTVL
B12: antibody 456 (antibody, V domains shown)
VH: QVQLQQWGAGLLKPSETLSLTCAVYGGSFSGYYWSWIRQPPGKGLEWIGEINHSGSTNYNPSLKSRVTISVDTSKNQFSLKLSSVTAADTAVYYCARDGSGSYYLSYYFDYWGQGTLVTVSS
VL: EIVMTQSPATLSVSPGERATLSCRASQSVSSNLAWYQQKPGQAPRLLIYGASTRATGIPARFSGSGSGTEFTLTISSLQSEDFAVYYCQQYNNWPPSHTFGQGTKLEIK
B13: antibody 477 (antibody, V domains shown)
VH: QVQLVESGGGVVQPGRSLRLSCAASGITFSSYAMHWVRQAPGKGLEWVAVISYDGSDKYHADSVKGRFAISRDNSKNTLYLQMNSLRAEDTAVYYCAKDKGIAVAGTGWIRPDPEYYFDYWGQGTLVTVSS
VL: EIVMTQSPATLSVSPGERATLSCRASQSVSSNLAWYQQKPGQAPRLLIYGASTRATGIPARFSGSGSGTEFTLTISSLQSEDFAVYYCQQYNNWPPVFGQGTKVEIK
B14: antibody 470 (antibody, V domains shown)
VH: not shown
VL: B5 VL with G53V, W99L
B15: antibody 454 (antibody, V domains shown)
VH: B6 VH with V18L, T28I, I34M, N52S, I59K, T87R, T91S, S95Y, A110T, F115L
VL: B6 VL with S31D, L39Q, A45V, N55H, S61T, Q81R, F88Y, R96S
B16: antibody 475 (antibody, V domains shown)
VH: QVQLVESGGGVVQPGRSLRLSCAASGFTFSSYAMHWVRQAPGKGLEWVTFISHEGSNKYYADSVKGRFTISRDNSKNTLYLQMNSLRAEDTAVYYCARTFEYSSSSATGDFDYWGQGTLVTVSS
VL: QSVLTQPPSVSGAPGQRVTISCTGSSSNIGAGYDVHWYQQLPGTAPKLLIYGNSNRPSGVPDRFSGSKSGTSASLAITGLQAEDEADYYCQSYDSSLSGVVFGGGTKLTVL
B17: anti-SARS-CoV-2 antibody 1193 (antibody, V domains shown)
VH: EVQLVESGGGLVQPGGSLRLSCAASGFTFSSYYMNWVRQAPGKGLEWVSYISSGSSIIYYADSVKGRFTISRDNAKNSLYLQMNSLRDEDTAVYYCARDSPLRYFDWQLGGGFDYWGQGTLVTVSS
VL: B6 VL with S31G, L39Q, F88Y, R96S, T98L, Y99W, T103G, V107L

biological target: SARS-CoV-2 full length spike protein (wild type), conjugated to beads (SARS-CoV-2, UniProt P0DTC2 14-1208); experiment: not given

Row | Binder | binding signal, bead assay [fold over isotype]
1 | B1 | 823
2 | B2 | 553
3 | B3 | 533
4 | B4 | 1.15
5 | B5 | 526
6 | B6 | 1090

biological target: SARS-CoV-2 full length spike protein (wild type), expressed on the surface of transiently transfected CHO … (SARS-CoV-2, UniProt P0DTC2 14-1273); experiment: not given

Row | Binder | median fluorescence intensity, fold over isotype control [fold over isotype]
7 | B7 | 8.2
8 | B8 | 7.99
9 | B9 | 9.77
10 | B10 | 18.2
11 | B11 | 2.31
12 | B12 | 9.25
13 | B13 | 30.7
14 | B14 | 20.7
15 | B15 | 29.6
16 | B16 | 32.2

biological target: SARS-CoV-2 spike protein (wild type), spike protein trimer (SARS-CoV-2, UniProt P0DTC2 14-1208); experiment: not given

Row | Binder | Kd [nM]
17 | B17 | 0.178

biological target: spike protein of SARS-CoV-2 clinical isolate USA/WA/1/2020 (live virus) (SARS-CoV-2, UniProt P0DTC2 14-1273); experiment: cell-based or functional assay

Row | Binder | Live Virus Neutralization IC50 [mg/L]
18 | B17 | 0.31

biological target: SARS-CoV-2 full-length spike protein on pseudotyped lentivirus (SARS-CoV-2, UniProt P0DTC2 14-1273); experiment: cell-based or functional assay

Row | Binder | Pseudo-neutralization IC50 [mg/L]
19 | B17 | 0.69

— US20210292393A1 (published 2021)
